The values below come from the DeepSol protein solubility set.

The data set is described as follows: soluble on expression in E. coli; label from the status in PepcDB or PDB records.
For “VAKKKRKLKVIPLGGLGEIGKNITVFEYGDDIFVVDCGIAFPEDDMLGIDLVIPDISYLTKNREKVRGIVLTHGHEDHIGALPYVLKDLNVPVYGTKLTLGLLEQKLEEHGLLNNVVLNVVKHSDVIELGCFKVEFIRSTHSIADSTALAIFTPVGTIFHTGDFKIDYTPIEGEPIDLARLAELGKKGVLLLMCDSTNVEREGYTMSEKTVGETFDEIFMNAKNRILVATFASNVHRIQQIVNAAIKFGRKIAICGRSMVNVVNVAMELGYMNVPEGLIIDIDHINKYPPEKIVIITTGSQGEPMSALTRMASGDHKKVEIIPGDLVIISANPIPGNEKLVSRVVNDLFKKGAEVIYESLADIHVSGHASQEELKLIHRLIRPKYFMPVHGEYRHLKRHANLAVELGMSPENIFIMDIGKVLELTNDSAKINGSVNAGRVLVDGLGVGDVGNIVLRDRKHLSQDGLIVVVITIEGDTGNVIAGPDVISRGFVYVRESEDLMEEIREVCKAALQKCNDKKKNDWSTKKSIIRDALRDFLYERTKRRPMILPIIMEV”, the “soluble on expression in E. coli” value was “soluble”.
The result for “MGSDKIHHHHHHMITHQDLKQLQSLTKVPALSILLPTHRTSPDNKQDPILVKNLVSEATKRLDKEFTSRQLEPLLKQLETLVSEIDYPHTLDGLALYVSHDFAKLYYLPFPVPARVVIDQTFATRDLVYGRHREHRYWVLLLSQASTRLLAGTGETLEEVNDENFPMQMTGPGATTPLPYETDSSYRDDRYRRFFQQVNSALTLYENDSLPLIVGGVERQISFFQEVSQNTQAMSPRGYAYAGTLRGNFDRATIHELTPQVWSIMQSVQEAQQAEALQALDDAMGTQSVVSTIGEVWRLAHEGRGKLLLVEKNYHVPAILTEDGRFELVDQPGGTDVMDDAVDEIIEVVLAKGGKVAIVDDEVLSIYQRIALIFRY” reads “not soluble”; that for “MFRPILILTILSCVLAYHQYRELKCSTPTNSIRGGPDRAECHLVLKAEELETGRPVPTGLGCWQEDHDGEEREYCDIVCPKSHTVFISYIDQGHRACFNFITYQVEKRNDEHVLWRSGKCLNSTVNYRIGCKFDDPFETQFKSDNEIFAHLRARARRV”, “not soluble”; that for “MKRVDSVISLIYSLSKSEKKHFSLQVIKDKEEKDYLVIYDIIIKSKQPNGNTVKEEFYRRKPNGSFEVSIQYLYEKLTDTLLTLRKKKDIYYDLLNNLCKARMLYERSLFEECFEILSNTIEQAQFYENNEILTIALKLELEYLLRLNFPNMTEQELFHKHFIQNEALKKIRKITEQSSLHNLLKYRLSHIGSIRTVKQKQDMNDLMVNELYIAASSDSEGNFELTRNHKLFQANYLMGAGDYRAALNSYKELDSLFEQNQQFWSNPPIYYLSVLEGVLGSLRSVSNYDEIPYFLDKLRKLISDSTSLEFKVNATCLLFQYELFPYLDKGDFSKCTQLMADYQEILYDKEAWLGPIRKSELLLYTTLVHIGNQEYKTAKKYISNAIIDHNIKYLPLMRTIRLVRLIVFYEVQEHELIQYESRSITRSLSSPKEQTFKTERIILWFLNKRNIPILKKDREAFWEKLSPEIHELYNNKYESQLLRLFDFTAWMESKIRKEKLSEVLRARASAKEC”, “not soluble”.
The entry for “MATFVPFVTCLDTGFWNEVNKKKLNDWKLDETPKCISSQLSLHQTEGFKCHLSLSYDSLSSLESTTGLSMSGTLLLYNTIESFKMVDKSDLIRSEAEKIWESITTRKWLQNPRLLSQFFIIAFADLKKFKYYYWTCVPALVYPSEIKQEITPLSSLGADHKILFDFYRKNNFPIFLYSKQSSKMLELSELENNTNPDEICVVVADPSPVAYSAGWMVRNVLAAVAHLHPTWKHCHIISLRSADSIGIKYTWTLPSAECSADGAQNAVPKAVGWERNANDKLQPISVDLSKEFDPKILMERSVDLNLSLIKWRLHPDIQLERYSQLKVLILGAGTLGCNIARCLIGWGVRHISFLDNSTVSYNNPVRQSLSEFEDARLGRGKAETAQAAIQRIFPSIQATAHRLTVPMPGHSIDEKDVPELEKDIAKLEQLVKDHDVVFLALDSREARWLPTVLASRHKKIAISVAIGFDTYVIIRHGIGSRSESVSDVSSSDSVPYSQLSCYFCSDVTAPGNSTFDRTLDQQCTVARPGTSMIASGIAVELLSSVLQYPDPLKTPASHDDNTTVLGAAPHQIRGFLGRFQQILPSVKRFDQCVACGDAIAAQFQQNGWKFVRDVMNSPGRLEEVTGLDELQNSVNAIDIDFEDDEDF” is “soluble”; for “MGSSHHHHHHSAGENLYFQGQQGDLMPQSALFTGIIPPVSTIFTADGQLDKPGTAALIDDLIKAGVDGLFFLGSGGEFSQLGAEERKAIARFAIDHVDRRVPVLIGTGGTNARETIELSQHAQQAGADGIVVINPYYWKVSEANLIRYFEQVADSVTLPVMLYNFPALTGQDLTPALVKTLADSRSNIIGIKDTIDSVAHLRSMIHTVKGAHPHFTVLCGYDDHLFNTLLLGGDGAISASGNFAPQVSVNLLKAWRDGDVAKAAGYHQTLLQIPQMYQLDTPFVNVIKEAIVLCGRPVSTHVLPPASPLDEPRKAQLKTLLQQLKLCCGRTRAPPPPPLRSGC” it is “soluble”.
Consider “MSLDSRKPGHRPVTMRDVAKAAGVSRMTVSRALKKDSPISSETRERILKVVKDMNYVPDQVAGSLTTKRSGFVGLLLPSLNNLHFAQTAQSLTDVLEQGGLQLLLGYTAYSPEREEQLVETMLRRRPEAMVLSYDGHTEQTIRLLQRASIPIVEIWEKPAHPIGHTVGFSNERAAYDMTNALLARGFRKIVFLGEKDDDWTRGAARRAGFKRAMREAGLNPDQEIRLGAPPLSIEDGVAAAELILQEYPDTDCIFCVSDMPAFGLLSRLKSIGVAVPEQVSVVGFGNFEVSRFASPEISTVRVDPIAIGRETGSLILRLLDPKQRSPQTAQHITLPPVLEFRPSLKNEGHHHHHH”, for which the “soluble on expression in E. coli” value is “soluble”.
“GPGSMDTQGIRAVSEYVARGHGSGIVWAWCAASPAAFASMINSPSRTRQAAHERSVHYLSSYEQKSGCVCTVRVDRMGITLNEFHHTVPLWLVTWHTQLLYRLFGPVGVAVHVTDLDSLVLNSLLSAWEGTPVQVTALTSRHRLSTCVSAHRRSTGRVFSVLAGLQDLVLLPSPSVHGSLVVAEYAPLLRRVTASKCCVEYLKPLSQLQHLQEVQLSQTLIRDAELRILAQLPLLTTLDVSSCPHLSSLEPLACAASLRILRASSCERLMLVAQLGTLATLRIVDLSGNVFRPTEFASFITQPTLHLQAGYFAHMRWPRDDPPSTQVLGSVKHLHLSYGTVPNIRWLCGAHSLEQLCLDHTNVTAVDMAVLVQHTPLLSVLSLSYCEHLHTNLDFTRSLHFLAMLTITRSSLPSPFLELVELQQSLSLTLS”: the “soluble on expression in E. coli” value is on record as “not soluble”.
For the sequence “MGSDKIHHHHHHMTAIVEPTWEERRTPEAAHEDDARSQYRKDYSRIIHSAALRRLQTKTQVLGLGDSDFYRTRLTHSLEVAQIGVGILLEIQRRFAGSNIEKYLPDERLLEAICLSHDYGHPPFGHGGERALNFAMREYGGFEGNAQTFRILSKLEKYSQNSGLNPTRRTLLGVLKYPTTYSNSMTNDFRRGTDIDKYPDAELKPPKCIYDCDLDVLDWVLKIFCSEDVTEFKKLDYKCKPLHKSLDCSLMETADDIAYTVHDLEDCIKLKLINREMWDAYIKSADYSEATRLEIEKWNQRIFSKEGNLVKQGISNMVYFFIHSVIQYEHEELSHPILKYGFKLGEEAARLRSAIQKIITNEVIKTHRVRVLESKGQRMIFSIFGELVRDPESFLPRETLDKYNKATGNLRMRVICDYVSGMTDEYATKTYQRFFTPKFGSVFDV”, the “soluble on expression in E. coli” value is reported as “not soluble”.
The entry for “MGSDKIHHHHHHMSNESCKDGKIWAYLKNINVYIDQNKILSDINLNLRYGENILILGPNGSGKSTFLKLLNRSIYPITTKDSSFKLFNKENINIWDLRKKIGFLFKEMEQRVNNGVTLYDVISSGFSGIFNSKYTNLLSESKKIKINNLINTWELGDIIYNEFQTLSDGQKRRALLARALVYEPNILVLDEPFCNLDLKSNIILNQNLNELIKHSVNLIYVTHNVESILPKTNRVILIKEGKILNDGSPSELINTKTLSDLFNISIKVIEQEGYWRMIPLSS” is “not soluble”.
In the case of “MSLGGLCPRCRGRGWCGRDRCPFLDALNEVRARLSSRNVDGYTVTAHVSWRGYPRVIAAPGVGEHRTPDEGGVLADLPYEEALKTRALTFRRYRGKRDVRNPPDLSDPEIESSISVRPVESTLQVRRRLSGASRTTPFIGPLVEGELELDGTPKVPRDLERYHEDDVKAEEAVVGLYRRGYDESYIARALSLGLLGRDRRMVPTRWSVAAVDSMVSEHLAREVRDLPVSSEYRVLSGEVFGNEMWVILRPEPLSYELVEAYEPGAPWSDRTRIAVLRDSEVKDCKEPRETGGAYFAARLAALEWCSELGKQHGITVIRIVRKEYSAPLGAWVIREAVRRAEEVFSTDDPREVWEFLREKLDDPVGEAALKVIKRGRQRTLDTFLEGHHHHHH”, the “soluble on expression in E. coli” value is recorded as “not soluble”.
As for “MNAFDRARQSAIAAAREARGTYRNGLVTPTAGVAPGMTQANLIALPRDWAYDFLLYAQRNPKACPILDVSDAGSPTTLLAEGSDLRTDIPMYRIWRDGKLAEEVSDATQAWAEHDDMVAFLIGCSFTFETPLQEAGIEVRHITDGCNVPMYRTNRACRPAGRLHGEMVVSMRPIPADRVAEASAISGRYPSVHGAPVHIGEPGRLGINDLSRPDFGDAVSIKPGEVPVFWACGVTPQAAVMASGVPFAITHSPGYMFITDVPDSTYHVLEHHHHHH”, the “soluble on expression in E. coli” value is given as “soluble”.
Regarding “GSHMIVQIGRREEFDKKLLGEMHKLRAQVFKERKGWDVSVIDEMEIDGYDALSPYYMLIQEDGQVFGCWRILDTTGPYMLKNTFPELLHGKEAPCSPHIWELSRFAINSGQKGSLGFSDCTLEAMRALARYSLQNDIQTLVTVTTVGVEKMMIRAGLDVSRFGPHLKIGIERAVALRIELNAKTQIALYGGVLVEQRLAVS”, the “soluble on expression in E. coli” value is “soluble”.
“LSAQEIIQYISDAKKSTPLKVYVNGHFENVTFPESFKVFGSEHSKVIFCEANEWKQFYQQNHSLITELEIEMDRRNSAIPLKDLTNTN”: the “soluble on expression in E. coli” value is given as “soluble”.
As for “SNNWVVSGSLTVSGNPLLANDPHLSLTAPGIWLPIVISSPSYSLAGVTIPGVPLVVIGRNSHVAWGFTNVGSDFTDFYRYQWVDENRYFYKGRIFGVEKSSIEAYVWDPLARSYRVQEISVARTIHGPVIEWQGEKFAVSYTSARPTFEMIFLWLLNKASSVRDALSAQRYFYGPPQNMVVADSAGNIAYSPVGAYPERATLPTIETGYGPIVNTGFLPFDGSAGEGEWRGFKPYSSLPVLFNPPQGFVATANSKPFEDGCWDGLGWDYADRFRTERIYTLLQERSAEEPLDAGDMRDIQLDVEDLGLKTLVSLMVRVASGDGGHVLERYMDMLAEWAENPQMNVDDYKPTLALLASWYFARDFWESLYGSEEHWRFIKLEYAEKALKAYLRGEDWVFNYF”, the “soluble on expression in E. coli” value is reported as “not soluble”.
The result for “MGRGRSSSSSSIESSSKSNPFGASSSTRNLSTDLRLGLSFGTSSGTQYFNGGYGYSVAAPAVEDAEYVAAVEEEEENECNSVGSFYVKVNMEGVPIGRKIDLMSLNGYRDLIRTLDFMFNASILWAEEEDMCNEKSHVLTYADKEGDWMMVGDVPWEMFLSTVRRLKISRANYHY” reads “soluble”.
The result for “GMSEDHPLDRPVWNSLGGPQSELDVASGNLRRLDPAYGPFAAAAPGAEAGLASLLQGDADEIWLVEPEPVAPPPGTRVIRVAPLLQMIADGPVPSFDDPGIVALGETDVPEMTALALATEPGPWASGTWRYGQFYGVRIDGRLAAMAGERMRPAPNLAEVSGVCTWPEYRGRGLAARLIRKVIAGMAARGEVPYLHSYASNASAIRLYESLGFRARRAMTATLLGKST” reads “soluble”.
Turning to “GAMDISPTNHHEMLQNLQTVVNELYREDVDYVADKILTRQTVMQESIARFHEIIAIDKNHLRAVEQAIEQTMHSLNAQIDVLTANRAKVQQFSSTSHVDDEDVNSIAVAKTDGLNQLYNLVAQDYALTDTIECLSRMLHRGTIPLDTFVKQGRELARQQFLVRWHIQRITSPLS”, the “soluble on expression in E. coli” value is recorded as “soluble”.
